Experimental data: patent US20050032185

What was measured:
[1] = molecular target: GST-PKBα (full length human protein kinase Bα with N-terminal glutathione S-transferase, from unstimulated 293 cells) [GST: P08515]
Sequence of GST-PKBα (full length human protein kinase Bα with N-terminal glutathione S-transferase, from unstimulated 293 cells) [GST: P08515] (P08515 whole entry, looked up): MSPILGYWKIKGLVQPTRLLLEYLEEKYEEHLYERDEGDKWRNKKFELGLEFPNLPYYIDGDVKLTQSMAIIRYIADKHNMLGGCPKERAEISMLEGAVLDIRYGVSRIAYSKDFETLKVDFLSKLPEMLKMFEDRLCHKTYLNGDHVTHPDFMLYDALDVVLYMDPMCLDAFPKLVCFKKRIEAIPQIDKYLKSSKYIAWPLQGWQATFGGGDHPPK

Sequence of protein kinase Bγ (Q9Y243 2-479): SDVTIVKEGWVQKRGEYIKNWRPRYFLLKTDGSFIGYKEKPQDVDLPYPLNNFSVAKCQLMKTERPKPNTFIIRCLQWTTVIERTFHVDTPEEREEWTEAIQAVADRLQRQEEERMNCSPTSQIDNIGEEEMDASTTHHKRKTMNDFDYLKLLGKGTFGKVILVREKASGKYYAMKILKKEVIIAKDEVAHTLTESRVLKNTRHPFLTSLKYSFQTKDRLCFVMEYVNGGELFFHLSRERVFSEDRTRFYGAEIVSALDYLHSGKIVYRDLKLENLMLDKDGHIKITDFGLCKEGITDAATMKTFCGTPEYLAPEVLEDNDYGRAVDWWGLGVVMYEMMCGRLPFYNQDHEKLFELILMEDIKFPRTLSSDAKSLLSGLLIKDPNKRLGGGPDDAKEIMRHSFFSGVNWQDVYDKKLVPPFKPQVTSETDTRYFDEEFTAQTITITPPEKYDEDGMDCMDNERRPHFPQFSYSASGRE

Protein | phosphorylation and activation (protein kinase Bγ) | phosphorylation and activation (protein kinase Bβ) | phosphorylation (p70 S6 kinase) | increase in GST-PKBα activity at maximal phosphorylation [1] | maximal phosphorylation of GST-PKBα (mol phosphate per mol protein) [1] | specific activity towards GST-PKBα in the presence of PtdIns(3,4,5)P3 [1]
PDK1 (form and source not specified in the sentence) (enzyme, UniProt O15530 1-556, looked up, species assumed) 3-phosphoinositide-dependent protein kinase 1: MARTTSQLYDAVPIQSSVVLCSCPSPSMVRTQTESSTPPGIPGGSRQGPAMDGTAAEPRPGAGSLQHAQPPPQPRKKRPEDFKFGKILGEGSFSTVVLARELATSREYAIKILEKRHIIKENKVPYVTRERDVMSRLDHPFFVKLYFTFQDDEKLYFGLSYAKNGELLKYIRKIGSFDETCTRFYTAEIVSALEYLHGKGIIHRDLKPENILLNEDMHIQITDFGTAKVLSPESKQARANSFVGTAQYVSPELLTEKSACKSSDLWALGCIIYQLVAGLPPFRAGNEYLIFQKIIKLEYDFPEKFFPKARDLVEKLLVLDATKRLGCEEMEGYGPLKAHPFFESVTWENLHQQTPPKLTAYLPAMSEDDEDCYGNYDNLLSQFGCMQVSSSSSSHSLSASDTGLPQRSGSNIEQYIHDLDSNSFELDLQFSEDEKRLLLEKQAGGNPWHQFVENNLILKMGPVDKRKGLFARRRQLLLTEGPHLYYVDPVNKVLKGEIPWSQELRPEAKNFKTFFVHTPNRTYYLMDPSGNAHKWCRKIQEVWRQRYQSHPDAAVQ | PDK1 phosphorylates and activates not only PKBα but also PKBβ and PKBγ | PDK1 phosphorylates and activates not only PKBα but also PKBβ and PKBγ | PDK1 has been shown by us to phosphorylate p70 S6 kinase in the absence of InsPtd(3,4,5)P3 |  |  | 
GST-DSTPK61 (residues 1-752 of Drosophila Serine/Threonine Protein Kinase-61, expressed in E. coli) (protein) MKCKSWSNKINNYVVRKIKSIKINGTQQQLQLPGSGASGIAAAAVITVASDCGENCSSNGTEHQQHFNIATTTATSATEATMPAMAKEKASATVSLGESNFRDINLKDLAVVVEAASRLHHQQNVCGCGAVSSTENNNNSRYGSSKYLTNGHTSPLAAAVASNSSSVATTPHCRMLHNCSLQQYQNDIRQQTEILDMLRQQHQQGYQSQQQQQQPQQQQEQQQQQEQSQQQQQLQNPAPRRSPNDFIFGRYIGEGSYSIVYLAVDIHSRREYAIKVCEKRLILRERKQDYIKREREVMHQMTNVPGFVNLSCTFQDQRSLYFVMTYARKGDMLPYINRVGSFDVACTRHYAAELLLACEHMHRRNVVHRDLKPENILLDEDMHTLIADFGSAKVMTAHERALATEHCSEQRRSNSDEDDEDSDRLENEDEDFYDRDSEELDDGDDEQQQEEMDSPRHRQRRYNRHRKASFVGTAQYVSPEVLQNGPITPAADLWALGCIVYQMIAGLPPFRGSNDYVIFKEILDCAVDFPQGFDKDAEDLVRKLLRVDPRDRLGAQDEFGYYESIRAHPFFAGIDWQTLRQQTPPPIYPYLPGVSQDEDFRSSYTVPGDLEPGLDERQISRLLSAELGVGSSVAMPVKRSTAKNSFDLNDAEKLQRLEQQKTDKWHVFADGEVILKKGFVNKRKGLFARKRMLLLTTGPRLIYIDPVQMIKKGEIPWSPDLRAEYKNFKIFFVHTPNRTYYLDDPEGYAIHW |  |  |  | paralleled by a 35 fold increase in activity | the phosphorylation of GST-PKBα reached 0.75 mol phosphate per mol protein | bacterially expressed GST-DST PK61 (280 U/mg)
